A short description of the test: Body weight reduction in C57BL/6 mice, daily subcutaneous dosing. Format: in vivo. The note with it: for Body weight reduction at 30 nmol/kg (% reduction compared to vehicle)(Day11): male C57BL/6 mice, 30 nmol/kg subcutaneously everyday, Day 11. On the procedure: FIGS. 1A-1F show in vivo activities of fusion protein conjugates. […] Body weight was measured daily. […] Compared to Vehicle control: ***, p<0.001. All data are expressed as mean values and standard error (SEM).
10 week old male C57BL/6 mice were injected everyday subcutaneously with 30 nmol/kg exemplary fusion protein conjugates for 10 or 14 days (n=5). Body weight was daily monitored for each individual animal. Day 1 and Day 10 (or Day 14) are first day and last day of molecule dosage. % BW loss=100*(BW on Day n-BW on Day 1)/(BW on Day 1). Data are indicated as mean values and standard error (SEM) or pooled values. Statistical analysis was performed by One-way ANOVA. Body weight reduction on Day 11 in Table 5 is calculated by −1*(% BW loss−% BW loss of vehicle group).

Positions count from the first letter of the chain named.

Consider Semaglutide [reference compound], for which the “Body weight reduction at 30 nmol/kg (% reduction compared to vehicle)(Day11)” value is recorded as 6.4%.

B1: Compound 14: GLP-1/FGF21 fusion polypeptide SEQ ID NO: 14 conjugated with Moiety A at 222K (conjugate)
chain: HGEGTFTSDVSSYLEEQAAREFIAWLVRGGGGQEPGQEPGQEPGQEPGQEPHPIPDSSPLLQFGGQVRQRYLYTDDAQQTEAHLEIREDGTVGGAADQSPESLLQLRALRPGVIQILGVRTSRFLCQRPDGALYGSLHFDPEACSFRELLLEDGYNVYQSEAHGLPLHLPGQRSPHRDPAPRGPARFLPLPGLPPALPEPPGILAPQPPDVGSSDPLSLVGKSQGRSPSYES
modifications: Moiety A conjugated at K222
For B1, the “Body weight reduction at 30 nmol/kg (% reduction compared to vehicle)(Day11)” value is 9.8%. Moreover, the “BW reduction efficacy compared to Compounds 10 and 13” value (30 nmol/kg) is reported as “lower BW reduction efficacy”.

B2: Compound 13: GLP-1/FGF21 fusion polypeptide SEQ ID NO: 13 conjugated with Moiety A at 222K (conjugate)
chain: B1 chain with Q33A, E34Q, Q37A, E38Q, Q41A, E42Q, Q45A, E46Q, Q49A, E50Q
modifications: Moiety A conjugated at K222
As to B2, the “Body weight reduction at 30 nmol/kg (% reduction compared to vehicle)(Day11)” value is given as 23.6%.

B3: Compound 50: GLP-1/FGF21 fusion polypeptide SEQ ID NO: 117 conjugated with Moiety A at 51K and 233K (conjugate)
chain: HGEGTFTSDVSSYLEEQAAREFIAWLVRGGGGGGGSGGGGSGGGGSGGGGKHPIPDSSPLLQFGGQVRQRYLYTDDAQQTEAHLEIREDGTVGGAADQSPESLLQLRALRPGVIQILGVRTSRFLCQRPDGALYGSLHFDPEACSFRELLLEDGYNVYQSEAHGLPLHLPGQRSPHRDPAPRGPARFLPLPGLPPALPEPPGILAPQPPDVGSSDPLSLVGGSQGRSPSYESK
modifications: Moiety A conjugated at K51 and K233
With B3, the “Body weight reduction at 30 nmol/kg (% reduction compared to vehicle)(Day11)” value is 9.4%.

B4: Compound 48: GLP-1/FGF21 fusion polypeptide SEQ ID NO: 88 conjugated with Moiety A at 51K and 222K (conjugate)
chain: HGEGTFTSDVSSYLEEQAAREFIAWLVRGGGGAQPGAQPGAQPGAQPGAQKHPIPDSSPLLQFGGQVRQRYLYTDDAQQTEAHLEIREDGTVGGAADQSPESLLQLRALRPGVIQILGVRTSRFLCQRPDGALYGSLHFDPEACSFRELLLEDGYNVYQSEAHGLPLHLPGQRSPHRDPAPRGPARFLPLPGLPPALPEPPGILAPQPPDVGSSDPLSLVGKSQGRSPSYES
modifications: Moiety A conjugated at K51 and K222
B4: the “Body weight reduction at 30 nmol/kg (% reduction compared to vehicle)(Day11)” value is given as 27.8%.

B5: Compound 22: GLP-1/FGF21 fusion polypeptide SEQ ID NO: 22 conjugated with Moiety A at 51K and 231K (conjugate)
chain: HGEGTFTSDVSSYLEEQAAREFIAWLVRGGGGGGGSGGGGSGGGGSGGGGKHPIPDSSPLLQFGGQVRQRYLYTDDAQQTEAHLEIREDGTVGGAADQSPESLLQLRALRPGVIQILGVRTSRFLCQRPDGALYGSLHFDPEACSFRELLLEDGYNVYQSEAHGLPLHLPGQRSPHRDPAPRGPARFLPLPGLPPALPEPPGILAPQPPDVGSSDPLSLVGGSQGRSPSYK
modifications: Moiety A conjugated at K51 and K231
For the molecule B5, the “Body weight reduction at 30 nmol/kg (% reduction compared to vehicle)(Day11)” value amounted to 32.9%.

B6: Compound 5: GLP-1/FGF21 fusion polypeptide SEQ ID NO: 5 conjugated with Moiety A at 51K and 222K (conjugate)
chain: HGEGTFTSDVSSYLEEQAAREFIAWLVRGGGGGGGSGGGGSGGGGSGGGGKHPIPDSSPLLQFGGQVRQRYLYTDDAQQTEAHLEIREDGTVGGAADQSPESLLQLRALRPGVIQILGVRTSRFLCQRPDGALYGSLHFDPEACSFRELLLEDGYNVYQSEAHGLPLHLPGQRSPHRDPAPRGPARFLPLPGLPPALPEPPGILAPQPPDVGSSDPLSLVGKSQGRSPSYAS
modifications: Moiety A conjugated at K51 and K222
In the case of B6, the “Body weight reduction at 30 nmol/kg (% reduction compared to vehicle)(Day11)” value stood at 14.4%. Besides, the “BW reduction compared to Semaglutide” value (30 nmol/kg, 10-day dosing period (FIGS. 1A-1B)) was “much more enhanced and persistent BW reduction”.

B7: Compound 54: GLP-1/FGF21 fusion polypeptide SEQ ID NO: 151 conjugated with Moiety B at 51C and 231C (conjugate)
chain: B6 chain with R20K, K51C, R107K, R110K, R120K, R173K, K222G, A231C
modifications: Moiety B conjugated at C51 and C231
As to B7, the “Body weight reduction at 30 nmol/kg (% reduction compared to vehicle)(Day11)” value came out at 13.5%.

B8: Compound 21: GLP-1/FGF21 fusion polypeptide SEQ ID NO: 21 conjugated with Moiety A at 51K and 225K (conjugate)
chain: B6 chain with K222G, G225K, A231E
modifications: Moiety A conjugated at K51 and K225
As to B8, the “Body weight reduction at 30 nmol/kg (% reduction compared to vehicle)(Day11)” value came to 34.4%.

B9: Compound 12: GLP-1/FGF21 fusion polypeptide SEQ ID NO: 12 conjugated with Moiety A at 225K (conjugate)
chain: B6 chain with K51S, K222G, G225K, A231E
modifications: Moiety A conjugated at K225
For the molecule B9, the “Body weight reduction at 30 nmol/kg (% reduction compared to vehicle)(Day11)” value turned out to be 22.8%.

B10: Compound 2: GLP-1/FGF21 fusion polypeptide SEQ ID NO: 2 conjugated with Moiety A at 20K and 231K (conjugate)
chain: B6 chain with R20K, K51S, K222G, A231K
modifications: Moiety A conjugated at K20 and K231
B10: the “Body weight reduction at 30 nmol/kg (% reduction compared to vehicle)(Day11)” value came to 18.2%.

B11: Compound 15: GLP-1/FGF21 fusion polypeptide SEQ ID NO: 15 conjugated with Moiety A at 231K (conjugate)
chain: B6 chain with K51S, K222P, A231K
modifications: Moiety A conjugated at K231
With B11, the “Body weight reduction at 30 nmol/kg (% reduction compared to vehicle)(Day11)” value is reported as 11.3%.

B12: Compound 11: GLP-1/FGF21 fusion polypeptide SEQ ID NO: 11 conjugated with Moiety A at 221K (conjugate)
chain: B6 chain with K51S, G221K, K222P, A231E
modifications: Moiety A conjugated at K221
B12: the “Body weight reduction at 30 nmol/kg (% reduction compared to vehicle)(Day11)” value was determined as 10.4%.

B13: Compound 20: GLP-1/FGF21 fusion polypeptide SEQ ID NO: 20 conjugated with Moiety A at 51K and 221K (conjugate)
chain: B6 chain with G221K, K222P, A231E
modifications: Moiety A conjugated at K51 and K221
As for B13, the “Body weight reduction at 30 nmol/kg (% reduction compared to vehicle)(Day11)” value was determined as 26.6%.

B14: Compound 51: GLP-1/FGF21 fusion polypeptide SEQ ID NO: 148 conjugated with Moiety B at 51C and 222C (conjugate)
chain: B6 chain with R20K, K51C, R107K, R110K, R120K, R173K, K222C, A231E
modifications: Moiety B conjugated at C51 and C222
In the case of B14, the “Body weight reduction at 30 nmol/kg (% reduction compared to vehicle)(Day11)” value stood at 26.2%.

B15: Compound 52: GLP-1/FGF21 fusion polypeptide SEQ ID NO: 149 conjugated with Moiety B at 51C and 225C (conjugate)
chain: B6 chain with R20K, K51C, R107K, R110K, R120K, R173K, K222G, G225C, A231E
modifications: Moiety B conjugated at C51 and C225
Regarding B15, the “Body weight reduction at 30 nmol/kg (% reduction compared to vehicle)(Day11)” value was 20.9%.

For the origin of these results see US11510990B2, “Conjugates of fusion proteins of GLP-1 and FGF21” (BEIJING QL BIOPHARMACEUTICAL CO., LTD., priority 2020, dated 2022).
